Measured values reported in US20090062199A1, “Nogo Receptor Polypeptides and Polypeptide Fragments and Uses Thereof” (Biogen Idec MA Inc., priority 2005, published 2009).

T1: TAJ (UniProt Q9NS68 30-170, limits assumed)
T1 construct: also called TROY
T1 sequence (looked up): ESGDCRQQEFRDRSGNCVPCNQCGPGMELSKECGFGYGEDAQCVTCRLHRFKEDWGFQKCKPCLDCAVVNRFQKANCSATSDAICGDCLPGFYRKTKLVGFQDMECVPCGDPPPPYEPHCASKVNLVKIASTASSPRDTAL

T2: LINGO-1 (Homo sapiens, UniProt Q96FE5)
T2 sequence (Q96FE5 42-620): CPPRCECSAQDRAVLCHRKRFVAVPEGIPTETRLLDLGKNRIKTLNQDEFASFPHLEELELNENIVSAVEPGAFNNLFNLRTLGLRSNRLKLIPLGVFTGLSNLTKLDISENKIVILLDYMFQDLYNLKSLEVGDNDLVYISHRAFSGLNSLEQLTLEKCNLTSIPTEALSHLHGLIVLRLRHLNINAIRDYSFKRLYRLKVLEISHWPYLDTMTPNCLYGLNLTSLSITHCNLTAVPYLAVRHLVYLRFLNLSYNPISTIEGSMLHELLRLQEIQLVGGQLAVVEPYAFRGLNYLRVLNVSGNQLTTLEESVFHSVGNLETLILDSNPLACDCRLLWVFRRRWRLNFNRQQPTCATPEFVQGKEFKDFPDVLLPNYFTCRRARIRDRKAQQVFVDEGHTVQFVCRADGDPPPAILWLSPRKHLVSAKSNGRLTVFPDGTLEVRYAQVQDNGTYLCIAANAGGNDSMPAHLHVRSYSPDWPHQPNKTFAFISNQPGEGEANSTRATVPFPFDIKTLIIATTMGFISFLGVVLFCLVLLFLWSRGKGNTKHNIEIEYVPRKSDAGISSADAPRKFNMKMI

T3: OMgp (Homo sapiens, UniProt P23515)
T3 sequence (P23515 25-417): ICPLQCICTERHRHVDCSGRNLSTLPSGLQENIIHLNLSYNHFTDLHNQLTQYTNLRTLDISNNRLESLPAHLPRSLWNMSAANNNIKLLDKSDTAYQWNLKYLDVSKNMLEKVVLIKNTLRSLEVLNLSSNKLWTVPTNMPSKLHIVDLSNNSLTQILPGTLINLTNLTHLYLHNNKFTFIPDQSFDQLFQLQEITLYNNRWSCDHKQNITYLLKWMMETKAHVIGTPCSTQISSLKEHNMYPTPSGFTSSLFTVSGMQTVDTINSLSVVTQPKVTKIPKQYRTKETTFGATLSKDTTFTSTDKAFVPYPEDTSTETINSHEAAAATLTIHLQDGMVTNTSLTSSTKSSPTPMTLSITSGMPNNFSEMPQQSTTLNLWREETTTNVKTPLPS

T4: Nogo-66 (Homo sapiens, UniProt Q9NQC3)
T4 construct: Nogo-66 is a 66 amino acid peptide from NogoA
T4 sequence (Q9NQC3 1055-1120 limits assumed): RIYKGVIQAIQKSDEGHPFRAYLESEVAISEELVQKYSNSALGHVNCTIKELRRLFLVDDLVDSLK

T5: p75 (Homo sapiens, UniProt P08138)
T5 sequence (P08138 29-427): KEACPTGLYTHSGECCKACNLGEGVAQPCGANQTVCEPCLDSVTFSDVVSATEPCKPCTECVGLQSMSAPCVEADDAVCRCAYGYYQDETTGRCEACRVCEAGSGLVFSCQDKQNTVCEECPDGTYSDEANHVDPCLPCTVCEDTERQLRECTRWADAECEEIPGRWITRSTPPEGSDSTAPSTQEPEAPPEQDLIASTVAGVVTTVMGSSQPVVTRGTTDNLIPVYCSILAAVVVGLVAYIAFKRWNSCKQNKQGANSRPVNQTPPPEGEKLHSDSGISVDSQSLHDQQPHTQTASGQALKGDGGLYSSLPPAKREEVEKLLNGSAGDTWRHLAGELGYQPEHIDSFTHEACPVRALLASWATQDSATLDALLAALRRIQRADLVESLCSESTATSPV

T6: TAJ (Homo sapiens, UniProt Q9NS68)
T6 sequence (Q9NS68 30-423): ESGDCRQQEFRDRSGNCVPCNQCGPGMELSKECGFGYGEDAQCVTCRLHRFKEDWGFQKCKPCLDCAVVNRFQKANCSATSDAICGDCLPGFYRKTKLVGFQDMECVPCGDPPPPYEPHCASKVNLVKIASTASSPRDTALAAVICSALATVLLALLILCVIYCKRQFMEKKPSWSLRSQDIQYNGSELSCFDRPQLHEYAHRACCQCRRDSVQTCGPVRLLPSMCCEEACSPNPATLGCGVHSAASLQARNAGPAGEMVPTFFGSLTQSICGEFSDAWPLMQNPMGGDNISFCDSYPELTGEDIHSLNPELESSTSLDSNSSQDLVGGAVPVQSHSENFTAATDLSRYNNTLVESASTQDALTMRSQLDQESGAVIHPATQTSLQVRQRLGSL


Columns and labels:
TAJ [1] = molecular target: T1, TAJ; experiment: ELISA; reference is NgR1(310)
LINGO-1 = molecular target: T2, LINGO-1; experiment: ELISA binding of FL-NgR1 to LINGO-1; conditions: compared with truncated versions containing the LRR region alone
Text: (§1) On size exclusion chromatography (SEC), the protein eluted as a single peak with a mass of about 80 kDa (FIG. 2B). […] See, for e.g., Shao, et al., (2005), Neuron 45, 353-359. A 10-fold higher affinity for Taj was seen using FL-NgR1 compared with the truncated versiox NgR1 (310) containing just the LRR region as described in Id.

OMgp = molecular target: T3, OMgp; experiment: ELISA binding of FL-NgR1 to OMgp; conditions: compared with truncated versions containing the LRR region alone
Nogo-66 = molecular target: T4, Nogo-66; experiment: ELISA binding of FL-NgR1 to Nogo-66; conditions: compared with truncated versions containing the LRR region alone
p75 = molecular target: T5, p75; experiment: ELISA binding of FL-NgR1 to p75; conditions: compared with truncated versions containing the LRR region alone
TAJ [2] = molecular target: T6, TAJ; experiment: ELISA binding of FL-NgR1 to TAJ; conditions: compared with truncated versions containing the LRR region alone
Text: as §1

AP-OMgp = experiment: Competition ELISA, anti-NgR1 antibody blocking binding of AP-OMgp to FL-NgR1; conditions: anti-NgR1 antibody used to block binding; FIG. 2C
Text: as §1

AP-Lingo-1 = experiment: Competition ELISA, anti-NgR1 antibody blocking binding of AP-Lingo-1 to FL-NgR1; conditions: anti-NgR1 antibody used to block binding; FIG. 2C
Text: as §1

Molecule	fold higher affinity compared with NgR1 (310) (TAJ [1]) [fold]	binding in an ELISA assay to LINGO-1 (LINGO-1)	binding in an ELISA assay to OMgp (OMgp)	binding in an ELISA assay to Nogo-66 (Nogo-66)	binding in an ELISA assay to p75 (p75)	binding in an ELISA assay to TAJ (TAJ [2])	binding of AP-OMgp in competition ELISA (AP-OMgp)	binding of AP-Lingo-1 in competition ELISA (AP-Lingo-1)
Human NgR1, excluding the GPI domain (FL-NgR1, residues 27-438) with a flag tag at its N-terminus (receptor, Soluble protein expressed in CHO cells; also called human FL-NgR1; NgRI; not shown: N-terminal flag tag) CPGACVCYNEPKVTTSCPQQGLQAVPVGIPAASQRIFLHGNRISHVPAASFRACRNLTILWLHSNVLARIDAAAFTGLALLEQLDLSDNAQLRSVDPATFHGLGRLHTLHLDRCGLQELGPGLFRGLAALQYLYLQDNALQALPDDTFRDLGNLTHLFLHGNRISSVPERAFRGLHSLDRLLLHQNRVAHVHPHAFRDLGRLMTLYLFANNLSALPTEALAPLRALQYLRLNDNPWVCDCRARPLWAWLQKFRGSSSEVPCSLPQRLAGRDLKRLAANDLQGCAVATGPYHPIWTGRATDEEPLGLPKCCQPDAADKASVLEPGRPASAGNALKGRVPPGDSPPGNGSGPRHINDSPFGTLPGSAEPPLTAVRPEGSEPPGFPTSGPRRRPGCSRKNRTRSHCRLGQAGSGG	10	–	–	–	–	–	–	–
FL-NgR1: Human NgR1 excluding the GPI domain, residues 27-438 (SEQ ID NO:22), N-terminal flag tag, expressed in CHO cells (protein, N-terminal FLAG tag; Human NgR-1) CPGACVCYNEPKVTTSCPQQGLQAVPVGIPAASQRIFLHGNRISHVPAASFRACRNLTILWLHSNVLARIDAAAFTGLALLEQLDLSDNAQLRSVDPATFHGLGRLHTLHLDRCGLQELGPGLFRGLAALQYLYLQDNALQALPDDTFRDLGNLTHLFLHGNRISSVPERAFRGLHSLDRLLLHQNRVAHVHPHAFRDLGRLMTLYLFANNLSALPTEALAPLRALQYLRLNDNPWVCDCRARPLWAWLQKFRGSSSEVPCSLPQRLAGRDLKRLAANDLQGCAVATGPYHPIWTGRATDEEPLGLPKCCQPDAADKASVLEPGRPASAGNALKGRVPPGDSPPGNGSGPRHINDSPFGTLPGSAEPPLTAVRPEGSEPPGFPTSGPRRRPGCSRKNRTRSHCRLGQAGSGG	–	as well as or better than truncated versions containing the LRR region alone	as well as or better than truncated versions containing the LRR region alone	as well as or better than truncated versions containing the LRR region alone	as well as or better than truncated versions containing the LRR region alone	as well as or better than truncated versions containing the LRR region alone	verified the activities of FL-NgR1	verified the activities of FL-NgR1
